Experimental data from US20220098307A1 (WUHAN YZY BIOPHARMA, published 2022).

Key:
human CEA = target: T1, human CEA (human, UniProt P06731 35-685); assay: flow cytometry, human tumor cells (table of the CEA series)
T1 sequence: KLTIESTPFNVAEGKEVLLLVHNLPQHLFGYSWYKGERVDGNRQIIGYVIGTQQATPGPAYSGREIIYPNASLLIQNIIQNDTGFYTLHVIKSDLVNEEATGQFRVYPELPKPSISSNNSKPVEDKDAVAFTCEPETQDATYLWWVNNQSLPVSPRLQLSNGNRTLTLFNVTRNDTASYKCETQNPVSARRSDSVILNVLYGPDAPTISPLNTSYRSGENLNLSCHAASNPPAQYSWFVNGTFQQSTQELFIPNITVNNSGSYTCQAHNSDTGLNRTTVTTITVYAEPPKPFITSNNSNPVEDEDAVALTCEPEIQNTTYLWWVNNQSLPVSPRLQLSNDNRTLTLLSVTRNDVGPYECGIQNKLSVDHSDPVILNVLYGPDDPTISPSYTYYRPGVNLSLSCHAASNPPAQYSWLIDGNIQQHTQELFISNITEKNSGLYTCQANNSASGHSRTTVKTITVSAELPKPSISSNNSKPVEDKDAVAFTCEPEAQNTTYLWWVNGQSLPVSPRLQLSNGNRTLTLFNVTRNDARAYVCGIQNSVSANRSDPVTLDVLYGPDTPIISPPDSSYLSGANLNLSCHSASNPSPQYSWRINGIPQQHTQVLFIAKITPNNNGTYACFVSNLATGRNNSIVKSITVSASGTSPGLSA
From the text: 1) Cell preparation: T cells isolated from CD3-positive human whole blood were used for a CD3 end affinity detection of multifunctional antibody molecule; positive tumor cells of corresponding antigen were used for detecting affinity of tumor antigen; for example, CD38-positive MM. 1S cells (purchased from the Cell Resource Center of Shanghai Institutes for Biological Sciences, Chinese Academy of Sciences) or RPMI 8226 cells (purchased from the Cell Resource Center of Shanghai Institutes for Biological Sciences, Chinese Academy of Sciences) were used for CD38 antigen detection, and PD-L1 positive H358 cells (purchased from the Cell Resource Center of Shanghai Institutes for Biological Sciences, Chinese Academy of Sciences) were used for PD-L1 antigen detection, and so on. The cells were resuspended with 1% FBS-PBS, adjusted to a density of 4×10⁶/ml, and 50 μl of cells were taken from each well, and then plated at 2×10⁵ per well. Cell plating was operated on ice
2) Addition of the antibody: according to the experimental design, the antibody was diluted gradually, and dilution of antibody was operated on ice. For example, the initial concentration of antibody for dilution was 3000 nM, and the antibody was diluted by 3 times with 11 concentration gradients. The diluted antibody was added to a cell well at 50 μl per well, mixed well, and shaked and incubated at 4° C. 1100 rpm/min for 2 h; after washing, the cells were resuspend in 1% FBS-PBS, and a diluted secondary antibody PE anti-human IgG FC (Biolegend, 409304) was added with a final concentration of 8 ug/ml and a volume of 50 μl/well. At the same time, a well only added with cells and secondary antibody was set as a control, the components were mixed well, and incubated under shaking at 1100 rpm/min at 4° C. for 1 h;
5) Data analysis: the data was analyzed by a flow analysis software FlowJo 7.6 thereby obtaining an average fluorescence intensity of the specific antibody concentration, plotted by a Graphpad Prism 5 with the antibody concentration (nM) as an abscissa and the average fluorescence intensity as an ordinate; the EC50 value was calculated by the method of One site—Specific binding, and the EC50 value indicated the cell affinity of the antibody to the corresponding target antigen.

Monkey CD3 = target: T2, Monkey CD3 (monkey); assay: flow cytometry, monkey T cells
T2 construct: whole, on cells; also called CD3 of monkey CD3 positive T cells

Human CD3ε = target: T3, Human CD3ε (human, UniProt P07766 23-126); assay: flow cytometry, human T cells
T3 construct: CD3 on T cells isolated from human whole blood
Method in brief: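 Mean fluorescence intensity by flow cytometry was plotted against antibody concentration; EC50 came from a one site–specific binding fit. Cells (2×10⁵/well) were incubated with 11-point, 3-fold antibody dilutions starting at 3000 nM for 2 h at 4° C, then with PE anti-human IgG Fc for 1 h.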

B1: M3IC-WT (bispecific antibody)
fusion heavy: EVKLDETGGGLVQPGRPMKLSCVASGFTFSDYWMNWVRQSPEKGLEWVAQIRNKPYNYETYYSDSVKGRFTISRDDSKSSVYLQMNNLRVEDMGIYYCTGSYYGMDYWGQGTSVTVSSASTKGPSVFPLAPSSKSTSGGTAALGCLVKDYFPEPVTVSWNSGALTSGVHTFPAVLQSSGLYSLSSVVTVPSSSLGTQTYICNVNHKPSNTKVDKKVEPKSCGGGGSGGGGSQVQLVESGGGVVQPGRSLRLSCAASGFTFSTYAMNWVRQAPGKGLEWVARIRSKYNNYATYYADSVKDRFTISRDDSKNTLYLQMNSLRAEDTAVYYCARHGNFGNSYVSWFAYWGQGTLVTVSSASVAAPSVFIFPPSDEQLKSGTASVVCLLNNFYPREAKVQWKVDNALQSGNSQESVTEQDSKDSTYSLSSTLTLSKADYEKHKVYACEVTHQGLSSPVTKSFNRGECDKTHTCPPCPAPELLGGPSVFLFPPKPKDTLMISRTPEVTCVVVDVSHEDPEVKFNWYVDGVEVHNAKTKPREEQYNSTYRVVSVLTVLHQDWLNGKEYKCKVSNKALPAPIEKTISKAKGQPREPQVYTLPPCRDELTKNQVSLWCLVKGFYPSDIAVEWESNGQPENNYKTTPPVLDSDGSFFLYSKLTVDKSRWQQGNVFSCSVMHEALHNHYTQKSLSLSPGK
cross light: QTVVTQEPSLTVSPGGTVTLTCRSSTGAVTTSNYANWVQQKPGQAPRGLIGGTNKRAPGVPARFSGSLLGGKAALTLSGVQPEDEAEYYCALWYSNLWVFGGGTKVEIKSSASTKGPSVFPLAPSSKSTSGGTAALGCLVKDYFPEPVTVSWNSGALTSGVHTFPAVLQSSGLYSLSSVVTVPSSSLGTQTYICNVNHKPSNTKVDKKVEPKSC
heavy: EVKLDETGGGLVQPGRPMKLSCVASGFTFSDYWMNWVRQSPEKGLEWVAQIRNKPYNYETYYSDSVKGRFTISRDDSKSSVYLQMNNLRVEDMGIYYCTGSYYGMDYWGQGTSVTVSSASTKGPSVFPLAPSSKSTSGGTAALGCLVKDYFPEPVTVSWNSGALTSGVHTFPAVLQSSGLYSLSSVVTVPSSSLGTQTYICNVNHKPSNTKVDKKVEPKSCDKTHTCPPCPAPELLGGPSVFLFPPKPKDTLMISRTPEVTCVVVDVSHEDPEVKFNWYVDGVEVHNAKTKPREEQYNSTYRVVSVLTVLHQDWLNGKEYKCKVSNKALPAPIEKTISKAKGQPREPQVCTLPPSRDELTKNQVSLSCAVKGFYPSDIAVEWESNGQPENNYKTTPPVLDSDGSFFLVSKLTVDKSRWQQGNVFSCSVMHEALHNRFTQKSLSLSPGK
light: DVVMTQTPLSLPVSLGDQASISCRSSQSLVHSNGNTYLRWYLQKPGQSPKVLIYKVSNRFSGVPDRFSGSGSGTDFTLKISRVEAEDLGVYFCSQSTHVPWTFGGGTKLEIKRTVAAPSVFIFPPSDEQLKSGTASVVCLLNNFYPREAKVQWKVDNALQSGNSQESVTEQDSKDSTYSLSSTLTLSKADYEKHKVYACEVTHQGLSSPVTKSFNRGEC
notes: structure 3 isotype control; CH2 WT; copies: 1 + 1 + 1 + 2
In the case of B1, the binding result (human CEA) is reported as “no binding”, the EC50 (Monkey CD3) is reported as 709 nM and the EC50 (Human CD3ε) is reported as 637 nM.

B2: M3IC-AAG (bispecific antibody)
fusion heavy: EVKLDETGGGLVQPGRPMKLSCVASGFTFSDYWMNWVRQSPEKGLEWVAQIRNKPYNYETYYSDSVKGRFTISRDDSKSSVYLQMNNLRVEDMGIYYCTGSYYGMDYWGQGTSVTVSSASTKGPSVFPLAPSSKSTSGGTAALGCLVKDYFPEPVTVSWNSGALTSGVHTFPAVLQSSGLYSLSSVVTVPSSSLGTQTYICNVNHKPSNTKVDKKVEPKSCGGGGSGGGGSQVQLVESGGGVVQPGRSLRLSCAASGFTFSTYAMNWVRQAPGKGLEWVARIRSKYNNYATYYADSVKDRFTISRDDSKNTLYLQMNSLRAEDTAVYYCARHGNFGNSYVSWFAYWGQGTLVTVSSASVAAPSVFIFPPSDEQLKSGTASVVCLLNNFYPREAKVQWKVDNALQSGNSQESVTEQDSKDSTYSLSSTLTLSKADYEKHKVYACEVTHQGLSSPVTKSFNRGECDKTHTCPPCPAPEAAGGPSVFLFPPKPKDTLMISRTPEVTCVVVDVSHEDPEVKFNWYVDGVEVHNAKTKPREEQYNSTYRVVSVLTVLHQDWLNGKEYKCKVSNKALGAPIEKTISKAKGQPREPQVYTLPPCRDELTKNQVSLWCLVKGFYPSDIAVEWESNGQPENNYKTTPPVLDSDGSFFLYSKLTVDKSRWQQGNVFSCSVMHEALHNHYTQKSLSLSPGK
cross light: QTVVTQEPSLTVSPGGTVTLTCRSSTGAVTTSNYANWVQQKPGQAPRGLIGGTNKRAPGVPARFSGSLLGGKAALTLSGVQPEDEAEYYCALWYSNLWVFGGGTKVEIKSSASTKGPSVFPLAPSSKSTSGGTAALGCLVKDYFPEPVTVSWNSGALTSGVHTFPAVLQSSGLYSLSSVVTVPSSSLGTQTYICNVNHKPSNTKVDKKVEPKSC
heavy: EVKLDETGGGLVQPGRPMKLSCVASGFTFSDYWMNWVRQSPEKGLEWVAQIRNKPYNYETYYSDSVKGRFTISRDDSKSSVYLQMNNLRVEDMGIYYCTGSYYGMDYWGQGTSVTVSSASTKGPSVFPLAPSSKSTSGGTAALGCLVKDYFPEPVTVSWNSGALTSGVHTFPAVLQSSGLYSLSSVVTVPSSSLGTQTYICNVNHKPSNTKVDKKVEPKSCDKTHTCPPCPAPEAAGGPSVFLFPPKPKDTLMISRTPEVTCVVVDVSHEDPEVKFNWYVDGVEVHNAKTKPREEQYNSTYRVVSVLTVLHQDWLNGKEYKCKVSNKALGAPIEKTISKAKGQPREPQVCTLPPSRDELTKNQVSLSCAVKGFYPSDIAVEWESNGQPENNYKTTPPVLDSDGSFFLVSKLTVDKSRWQQGNVFSCSVMHEALHNRFTQKSLSLSPGK
light: DVVMTQTPLSLPVSLGDQASISCRSSQSLVHSNGNTYLRWYLQKPGQSPKVLIYKVSNRFSGVPDRFSGSGSGTDFTLKISRVEAEDLGVYFCSQSTHVPWTFGGGTKLEIKRTVAAPSVFIFPPSDEQLKSGTASVVCLLNNFYPREAKVQWKVDNALQSGNSQESVTEQDSKDSTYSLSSTLTLSKADYEKHKVYACEVTHQGLSSPVTKSFNRGEC
notes: structure 3 isotype control; CH2 AAG; copies: 1 + 1 + 1 + 2
For B2, the binding result (human CEA) was “no binding”, the EC50 (Monkey CD3) was 659 nM and the EC50 (Human CD3ε) was 606 nM.

B3: M3IC-FES (bispecific antibody)
fusion heavy: EVKLDETGGGLVQPGRPMKLSCVASGFTFSDYWMNWVRQSPEKGLEWVAQIRNKPYNYETYYSDSVKGRFTISRDDSKSSVYLQMNNLRVEDMGIYYCTGSYYGMDYWGQGTSVTVSSASTKGPSVFPLAPSSKSTSGGTAALGCLVKDYFPEPVTVSWNSGALTSGVHTFPAVLQSSGLYSLSSVVTVPSSSLGTQTYICNVNHKPSNTKVDKKVEPKSCGGGGSGGGGSQVQLVESGGGVVQPGRSLRLSCAASGFTFSTYAMNWVRQAPGKGLEWVARIRSKYNNYATYYADSVKDRFTISRDDSKNTLYLQMNSLRAEDTAVYYCARHGNFGNSYVSWFAYWGQGTLVTVSSASVAAPSVFIFPPSDEQLKSGTASVVCLLNNFYPREAKVQWKVDNALQSGNSQESVTEQDSKDSTYSLSSTLTLSKADYEKHKVYACEVTHQGLSSPVTKSFNRGECDKTHTCPPCPAPEFEGGPSVFLFPPKPKDTLMISRTPEVTCVVVDVSHEDPEVKFNWYVDGVEVHNAKTKPREEQYNSTYRVVSVLTVLHQDWLNGKEYKCKVSNKALPASIEKTISKAKGQPREPQVYTLPPCRDELTKNQVSLWCLVKGFYPSDIAVEWESNGQPENNYKTTPPVLDSDGSFFLYSKLTVDKSRWQQGNVFSCSVMHEALHNHYTQKSLSLSPGK
cross light: QTVVTQEPSLTVSPGGTVTLTCRSSTGAVTTSNYANWVQQKPGQAPRGLIGGTNKRAPGVPARFSGSLLGGKAALTLSGVQPEDEAEYYCALWYSNLWVFGGGTKVEIKSSASTKGPSVFPLAPSSKSTSGGTAALGCLVKDYFPEPVTVSWNSGALTSGVHTFPAVLQSSGLYSLSSVVTVPSSSLGTQTYICNVNHKPSNTKVDKKVEPKSC
heavy: EVKLDETGGGLVQPGRPMKLSCVASGFTFSDYWMNWVRQSPEKGLEWVAQIRNKPYNYETYYSDSVKGRFTISRDDSKSSVYLQMNNLRVEDMGIYYCTGSYYGMDYWGQGTSVTVSSASTKGPSVFPLAPSSKSTSGGTAALGCLVKDYFPEPVTVSWNSGALTSGVHTFPAVLQSSGLYSLSSVVTVPSSSLGTQTYICNVNHKPSNTKVDKKVEPKSCDKTHTCPPCPAPEFEGGPSVFLFPPKPKDTLMISRTPEVTCVVVDVSHEDPEVKFNWYVDGVEVHNAKTKPREEQYNSTYRVVSVLTVLHQDWLNGKEYKCKVSNKALPASIEKTISKAKGQPREPQVCTLPPSRDELTKNQVSLSCAVKGFYPSDIAVEWESNGQPENNYKTTPPVLDSDGSFFLVSKLTVDKSRWQQGNVFSCSVMHEALHNRFTQKSLSLSPGK
light: DVVMTQTPLSLPVSLGDQASISCRSSQSLVHSNGNTYLRWYLQKPGQSPKVLIYKVSNRFSGVPDRFSGSGSGTDFTLKISRVEAEDLGVYFCSQSTHVPWTFGGGTKLEIKRTVAAPSVFIFPPSDEQLKSGTASVVCLLNNFYPREAKVQWKVDNALQSGNSQESVTEQDSKDSTYSLSSTLTLSKADYEKHKVYACEVTHQGLSSPVTKSFNRGEC
notes: structure 3 isotype control; CH2 FES; copies: 1 + 1 + 1 + 2
B3 was tested, and the binding result (human CEA) was “no binding”, the EC50 (Monkey CD3) was 671 nM and the EC50 (Human CD3ε) was 662 nM.
